The target in assay [1] is T1, human interleukin-2 (recombinant human IL-2, teceleukin) (human, UniProt P60568 21-153).
T1 construct: also called hIL-2; rhIL-2
Nature of the assay: SPR, mAb immobilized, IL-2 injected. Here is the method: Chip surface was regenerated after every cycle using glycine buffer pH 1.5. Measurements were acquired at 20° C. and analysed on a Biacore T100 (GE Healthcare).

Assay [2] deals with T1, human interleukin-2 (recombinant human …). Nature of the assay: single-cycle surface plasmon resonance (SPR). In general terms: SPR reads the build-up and loss of mass on a sensor chip optically.
Assay [3] shares this target. In words: single-cycle SPR.
Assay [4] shares this target. Nature of the assay: SPR (Table 1).
Assay [5] has as its target T2, mouse IL-2 (mouse, UniProt P04351 21-169).
T2 sequence (looked up): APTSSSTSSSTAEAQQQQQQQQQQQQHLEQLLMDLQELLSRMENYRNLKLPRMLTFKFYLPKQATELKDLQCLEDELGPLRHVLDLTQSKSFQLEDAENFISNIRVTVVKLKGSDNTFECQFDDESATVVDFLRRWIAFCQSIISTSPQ
Nature of the assay: SPR (Table 1).

The values that follow come from US20230303680A1 (UNIVERSIT T Z RICH, published 2023).

Substitutions are numbered along the chain they refer to.

T1 sequence (P60568 21-153 limits assumed): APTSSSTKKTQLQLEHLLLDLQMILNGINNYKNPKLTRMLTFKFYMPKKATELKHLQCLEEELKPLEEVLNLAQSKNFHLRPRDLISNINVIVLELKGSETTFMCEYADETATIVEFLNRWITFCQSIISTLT

B1: UFKA-20 (mouse anti-human IL-2 monoclonal antibody) (antibody, V domains shown)
VH: EVMLVESGGGLVKPGGSLKLSCAASGFSFSNYAMSWVRQTPERRLEWVALISGGGSYSYYPDSLKGRFTISRDSARNSLYLQMSSLRSEDTAMYYCARHMGYNDYLAWFAYWGQGTLVTVSS
VL: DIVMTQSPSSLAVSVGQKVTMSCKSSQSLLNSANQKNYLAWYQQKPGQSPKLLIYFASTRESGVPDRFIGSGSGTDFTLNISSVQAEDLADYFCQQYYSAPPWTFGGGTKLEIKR
notes: Full mouse heavy and light chains; also called UFKA-20-00; 1+6
B1: in assay [1], the Kd – broadly, a measure of binding affinity in units of concentration – was 2.3 nM; the dissociation rate constant (koff) (commonly a measure of how fast the partners let go of each other) was 0.000391 s⁻¹; the on-rate constant (kon) (usually a measure of how fast the partners come together) turned out to be 257000 M⁻¹ s⁻¹. Moreover, the dissociation constant Kd in assay [2] is 0.788 nM.

B2: 105 + 9 (antibody, V domains shown)
VH: B1 VH with Y105A
VL: DIVMTQSPSSLAVSVGQKVTMSCKSSQSLLNSANQRNYLAWYQQKPGQSPKLLIYWASTRESGVPDRFIGSGSGTDFTLNISSVQAEDLADYFCQQYYSAPPWTFGGGTKLEIKR
notes: UFKA-20 variant; also called UFKA-20 variant 105+9; vH chain 105, vL chain 9; copies: 2 + 2
As to B2, the Kd in assay [2] is 0.271 nM.

B3: UFKA-20 variant 5+9 (antibody, V domains shown)
VH: B1 VH with S56R, M100L, Y102H
VL: B2 VL
Regarding B3, in assay [3], the dissociation constant Kd was 0.186 nM.

B4: UFKA-20 variant 2+9 (antibody, V domains shown)
VH: B1 VH with S56R, Y102K
VL: B2 VL
In the case of B4, the Kd in assay [3] was determined as 64 nM.

B5: NARA1 (anti-human IL-2 mAb, CD122-biasing) (antibody, V domains shown)
VH: QVQLQQSGAELVRPGTSVKVSCKASGYAFTNYLIEWVKQRPGQGLEWIGVINPGSGGTNYNEKFKGKATLTADKSSSTAYMQLSSLTSDDSAVYFCARWRGDGYYAYFDVWGAGTTVTVSS
VL: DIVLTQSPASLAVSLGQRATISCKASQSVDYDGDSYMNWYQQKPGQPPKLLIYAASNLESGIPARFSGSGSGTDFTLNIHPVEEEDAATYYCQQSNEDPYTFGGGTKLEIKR
B5: in assay [1], the Kd is 4.2 nM, the koff came to 0.000117 s⁻¹ and the on-rate (kon) amounted to 30000 M⁻¹ s⁻¹.

B6: F5111 (anti-human IL-2 mAb) (antibody, V domains shown)
VH: QLQLQESGPGLVKPSQTLSLTCTVSGGSISSGGYYWSWIRQHPGKGLEWIGYIYYSGSTYYNPSLKSRVTISVDTSKNQFSLKLSSVTAADTAVYYCARTPTVTGDWFDPWGRGTLVTVSS
VL: NFMLTQPHSVSESPGKTVTISCTRSSGSIASNYVQWYQQRPGSSPTTVIYEDNQRPSGVPDRFSGSIDSSSNSASLTISGLKTEDEADYYCQSYDSSNVVFGGGTKLTVL
As for B6, in assay [4], the equilibrium dissociation constant (Kd) stood at 1.88 nM, the koff was found to be 0.00711 s⁻¹ and the on-rate (kon) came out at 3.78e+06 M⁻¹ s⁻¹.

B7: JES6-1 (anti-mouse IL-2 mAb) (antibody, V domains shown)
VH: EIQLQQSGPELRRPGSSVKLSCKASGYNITDYLIHWVRHRPEHGLEWIGWIDPEDGETRYAQKFQSKATLTADTSSNAAYMQLSSLTPEDTATYFCARSLDSTYIYPFAYWGQGTLVTVSS
VL: DIVMTQSPFSLAVSEGEMVTINCKSSQSLLSSGNQKNYLAWYQQKPGQSPKLLIYYASTGQSGVPDRFIGSGSGTDFTLTISDVQAEDLADYYCLQHYISPPTFGAGTKLELK
The molecule B7 had a Kd in assay [5] of 5.6 nM.
